According to patent US11938198B2, “Treatment of heart disease by disruption of the anchoring of PP2A” (University of Miami, priority 2019, dated 2024):

Legend:
[1] = test system: adult rat ventricular myocytes (ARVM); experiment: ARVM morphologic hypertrophy (cell width and length by immunocytochemistry); format: cell-based; conditions: for PE-induced ARVM hypertrophy / basal ARVM morphology: adenoviral expression; for PE-induced ARVM hypertrophy: 20 μM PE 24 hours; for basal ARVM morphology: no drug
Procedure: Adult rat ventricular myocyte isolation and culture: 2-3 month old rats were anesthetized using Ketamine (80-100 mg/kg) and Xylazine (5-10 mg/kg) IP following 1000 U heparinization for cardiac excision. The heart was transferred immediately into chilled perfusion buffer (NaCl 120 mM, KCl 5.4 mM, Na2HPO4·7H2O 1.2 mM, NaHCO320.0 mM, MgCl2·6H2O 1.6 mM, Taurine 5 mM, Glucose 5.6 mM, 2,3-Butanedione monoxime 10 mM) pre-equilibrated with 95% O2 and 5% CO2. After removal of extraneous tissue, the heart was attached via the aorta to a Harvard Langendorff apparatus cannula. Ca^2+-free perfusion was used to flush out remaining blood with a constant rate of 8-10 mL/min at 37° C. The heart was then digested through circulatory perfusion with 50 mL perfusion buffer containing 125 mg type II collagenase (Worthington, 245 U/mg), 0.1 mg protease (Sigma type XIV) and 0.1% BSA. After perfusion, the atria were removed and the ventricular myocytes dissociated by slicing and repetitive pipetting. The debris was filtered by a 200 μm nylon mesh, and the myocytes collected by one minute centrifugation at 50 g. Ca^2+ concentration in the buffer was gradually recovered to 1.8 mM and the myocytes were resuspended in ACCT medium (M199 Medium (Invitrogen 11150-059), Creatine 5 mM, L-carnitine 2 mM, Taurine 5 mM, HEPES 25 mM, 2,3-Butanedione monoxime 10 mM, BSA 0.2% and 1×Insulin-Transferrin-Selenium Supplement) and plated on 10 μg/ml laminin pre-coated dishes. Cells were washed with ACCT medium 1.5 hours after plating and subjected to adenoviral infection or siRNA transfection, in which 100-200 Multiplicity of Infection (MOI) of adenovirus and 100 nmol/L siRNA mixed with Dharmafect1 (Dharmacon) were used, respectively. Adrenergic agonists were added the next day, with biochemical assay and morphological measurement performed after 24 hours of stimulation.
Immunocytochemistry: Myocytes on coverslips were fixed in 3.7% formaldehyde in PBS for 1 hour, permeabilized with 0.3% Triton X-100, and blocked in PBS containing 0.2% BSA and 1% horse serum. The slides were then sequentially incubated for 1 hour with primary and Alexa fluorescent dye-conjugated specific-secondary antibodies (Invitrogen, 1:1000) diluted in blocking buffer. The slips were washed three times with blocking buffer. 1 μg/mL Hoechst 33258 was included in the last wash stop to label nuclei. Slides were sealed in SlowFade Gold antifade buffer (Invitrogen, S36938) for fluorescent microscopy. Wide-field images were acquired using a Leica DM4000 Microscope.

PDE4D3 Ser-54 = PDE4D3 Ser-54 phosphorylation in mAKAP immunoprecipitates from transfected HEK293 cells (phospho-specific immunoblot); format: cell-based
PP2A-A subunit = target: T1, PP2A-A subunit (Homo sapiens, UniProt P30153); experiment: GST-PP2A-A pull-down of GFP-tagged mAKAP fragments expressed in HEK293 cells; format: binding; conditions: GFP-tagged fragments in HEK293 cell extracts
T1 construct: made in house; host or cells: bacteria
Procedure: GST-pulldowns—Glutathione resin adsorbed with PP2A-A subunit GST fusion protein or GST control protein were incubated with HEK293 cell extracts. After an overnight incubation, the beads were washed three times. Bound proteins were analyzed by immunoblotting.
mAKAP residues 2083-2319 contain the PP2A binding domain. In order to map the PP2A binding site on mAKAP, a bacterially-expressed PP2A-A subunit GST-fusion protein was used to pull down GFP-tagged fragments of mAKAP expressed in HEK293 cells (FIGS. 10A & B). GST-PP2A-A consistently pulled down only fragments of mAKAP containing a domain C-terminal to residue 2085.

PP2A = target: T2, PP2A (Homo sapiens, UniProt P30153+P67775); experiment: myc-tag immunoprecipitation of mAKAP fragments from HEK293 cells with phosphatase assay; format: binding; conditions: myc-tagged fragments expressed in HEK293 cells
T2 construct: endogenous in cells; host or cells: HEK293
Procedure: Immunoprecipitation—HEK293 cells were used in this project as a heterologous system lacking mAKAP in which the various wildtype and mutant proteins could be easily expressed. Cells cultured on 60 mm plates were transfected at 50%-70% confluency by the calcium phosphate method, using 6 μg of each DNA construct per plate. Cells were harvested 24 hours after transfection in 0.5 ml HSE buffer (HEPES, pH 7.4, 150 mM NaCl, 5 mM EDTA, 1% Triton X-100 and protease inhibitors). Supernatants were incubated with 3 μg antibody and 15 μl prewashed protein A- or G-agarose beads. Following overnight incubation at 4° C., the immunoprecipitates were washed three times with the same buffer. Bound proteins were analyzed by immunoblotting.
To measure phosphatase activity, immunoprecipitated protein complexes were washed twice in HSE buffer and once in PP2A reaction buffer. The immunoprecipitates were incubated for 30 minutes at 30° C. in 20 μl PP2A assay buffer containing 100,000 cpm [^32P]histone in the presence and absence of inhibitors. The PP2A inhibitor (Calbiochem) was used at a concentration of 30 nM. Purified I-1 was phosphorylated by PKA before using as a specific PP1 inhibitor. Reactions were terminated by the addition of 100 μl 20% TCA followed by 10 min centrifugation. TCA supernatants containing released ^32PO4 were measured by scintillation counting. […]

T1 sequence (P30153 whole entry, the tested form may be a part): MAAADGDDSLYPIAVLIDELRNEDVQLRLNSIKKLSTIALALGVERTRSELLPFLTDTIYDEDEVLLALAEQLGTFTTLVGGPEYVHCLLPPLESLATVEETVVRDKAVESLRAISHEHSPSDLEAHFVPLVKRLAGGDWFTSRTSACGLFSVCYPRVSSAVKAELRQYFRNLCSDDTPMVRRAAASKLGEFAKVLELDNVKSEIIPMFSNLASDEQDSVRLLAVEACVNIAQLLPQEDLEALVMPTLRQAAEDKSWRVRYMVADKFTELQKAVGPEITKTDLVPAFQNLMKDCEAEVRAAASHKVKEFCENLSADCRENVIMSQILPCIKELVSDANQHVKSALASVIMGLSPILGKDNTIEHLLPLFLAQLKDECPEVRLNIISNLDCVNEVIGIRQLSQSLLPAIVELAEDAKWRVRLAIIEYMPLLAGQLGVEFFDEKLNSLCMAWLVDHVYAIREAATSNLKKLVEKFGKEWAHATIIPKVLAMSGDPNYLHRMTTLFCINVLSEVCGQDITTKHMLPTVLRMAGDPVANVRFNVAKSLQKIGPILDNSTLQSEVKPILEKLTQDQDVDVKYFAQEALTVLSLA
T2 sequence (P67775 whole entry, the tested form may be a part): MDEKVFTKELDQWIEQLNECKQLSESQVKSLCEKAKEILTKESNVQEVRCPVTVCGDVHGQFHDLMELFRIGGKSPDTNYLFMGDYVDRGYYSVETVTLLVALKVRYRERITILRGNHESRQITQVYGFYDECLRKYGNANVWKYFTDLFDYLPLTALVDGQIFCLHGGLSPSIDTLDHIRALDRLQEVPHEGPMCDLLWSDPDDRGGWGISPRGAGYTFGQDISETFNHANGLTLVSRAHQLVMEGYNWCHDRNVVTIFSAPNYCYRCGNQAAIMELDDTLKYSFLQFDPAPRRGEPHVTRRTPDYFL
T2 sequence (P30153 whole entry, the tested form may be a part): as the sequence (P30153 whole entry, the tested form may be a part) above

CNC[C@H](O)c1cccc(O)c1 [PE, phenylephrine, reference compound]
decrease in ARVM length/width ratio ([1]; 20 μM PE, 24 hours): 8-14% | increase in ARVM width ([1]; 20 μM PE, 24 hours): 8-10%

CC(C)NCC(O)c1ccc(O)c(O)c1 (stereo not drawn) [Iso, isoproterenol, reference compound]
ARVM length and width under chronic β-adrenergic stimulation ([1]; 10 μM Iso, 24 hours): increased both ARVM length and width

C=C[C@@]1(C)CC(=O)[C@]2(O)[C@@]3(C)[C@@H](O)CCC(C)(C)[C@@H]3[C@H](O)[C@H](OC(C)=O)[C@@]2(C)O1 [Fsk, forskolin]
further enhancement of PDE4D3 Ser-54 phosphorylation by forskolin (PDE4D3 Ser-54; 5 μM Fsk 10 min, in the presence of OA): 1.8 fold | PDE4D3 Ser-54 phosphorylation, forskolin alone (PDE4D3 Ser-54; 5 μM Fsk, absence of phosphatase inhibition): no significant effect

B1: SRF S103D: SRF phosphomimetic mutant expressed by adenovirus (protein, UniProt P11831 1-508, looked up, variant S103D)
Serum response factor: MLPTQAGAAAALGRGSALGGSLNRTPTGRPGGGGGTRGANGGRVPGNGAGLGPGRLEREAAAAAATTPAPTAGALYSGSEGDSESGEEEELGAERRGLKRSLDEMEIGMVVGGPEASAAATGGYGPVSGAVSGAKPGKKTRGRVKIKMEFIDNKLRRYTTFSKRKTGIMKKAYELSTLTGTQVLLLVASETGHVYTFATRKLQPMITSETGKALIQTCLNSPDSPPRSDPTTDQRMSATGFEETDLTYQVSESDSSGETKDTLKPAFTVTNLPGTTSTIQTAPSTSTTMQVSSGPSFPITNYLAPVSASVSPSAVSSANGTVLKSTGSGPVSSGGLMQLPTSFTLMPGGAVAQQVPVQAIQVHQAPQQASPSRDSSTDLTQTSSSGTVTLPATIMTSSVPTTVGGHMMYPSPHAVMYAPTSGLGDGSLTVLNAFSQAPSTMQVSHSQVQEPGGVPQVFLTASSGTVQIPVSAVQLHQMAVIGQQAGSSSNLTELQVVNLDTAHSTKSE
PE-induced ARVM hypertrophy [1]: did not enhance nor diminish | basal ARVM morphology [1]: increased ARVM width

B2: SRF S103A: SRF Ser103-to-alanine mutant expressed by adenovirus (protein, UniProt P11831 1-508, looked up, variant S103A)
Serum response factor: MLPTQAGAAAALGRGSALGGSLNRTPTGRPGGGGGTRGANGGRVPGNGAGLGPGRLEREAAAAAATTPAPTAGALYSGSEGDSESGEEEELGAERRGLKRSLAEMEIGMVVGGPEASAAATGGYGPVSGAVSGAKPGKKTRGRVKIKMEFIDNKLRRYTTFSKRKTGIMKKAYELSTLTGTQVLLLVASETGHVYTFATRKLQPMITSETGKALIQTCLNSPDSPPRSDPTTDQRMSATGFEETDLTYQVSESDSSGETKDTLKPAFTVTNLPGTTSTIQTAPSTSTTMQVSSGPSFPITNYLAPVSASVSPSAVSSANGTVLKSTGSGPVSSGGLMQLPTSFTLMPGGAVAQQVPVQAIQVHQAPQQASPSRDSSTDLTQTSSSGTVTLPATIMTSSVPTTVGGHMMYPSPHAVMYAPTSGLGDGSLTVLNAFSQAPSTMQVSHSQVQEPGGVPQVFLTASSGTVQIPVSAVQLHQMAVIGQQAGSSSNLTELQVVNLDTAHSTKSE
PE-induced ARVM hypertrophy [1]: inhibited the PE-induced concentric hypertrophy | basal ARVM morphology [1]: did not affect basal myocyte size

B3: human 2085-2319: GFP-fusion fragment of human mAKAP residues 2085-2319 (protein)
chain: TSLTQIKEKVLEHSHRPIQLRKGDFYSYLSLSSHDSDCGEVTNYIEEKSSTPLPLDTTDSGLDDKEDIECFFEACVEGDSDGEEPCFSSAPPNESAVPSEAAMPLQATACSSEFSDSSLSADDADTVALSSPSSQERAEVGKEVNGLPQTSSGCAENLEFTPSKLDSEKESSGKPGESGMPEEHNAASAKSKVQDLSLKANQPTDKAALHPSPKTLTCEENLLNLHEKRHRNMHR
modifications: left off: large carriers
binding to GST-PP2A-A (pull-down) (PP2A-A subunit): bound GST-PP2A-A

B4: rat mAKAP 1835-2312: GFP-fusion fragment of rat mAKAP (protein)
chain: ANPSDTLDIEALLNGSIRCLSENNGNGKTPPRTHGSGTKGENKKSTYDVSKDPHVADMENGNIESTPEREREKPQGLPEVSENLASNVKTISESELSEYEAVMDGSEDSSVARKEFCPPNDRHPPQMGPKLQHPENQSGDCKPVQNPCPGLLSEAGVGSRQDSNGLKSLPNDAPSGARKPAGCCLLEQNETEESASISSNASCCNCKPDVFHQKDDEDCSVHDFVKEIIDMASTALKSKSQPESEVAAPTSLTQIKEKVLEHSHRPIHLRKGDFYSYLSLSSHDSDCGEVTNYIDEKSSTPLPPDAVDSGLDDKEDMDCFFEACVEDEPVNEEAGLPGALPNESAIEDGAEQKSEQKTASSPVLSDKTDLVPLSGLSPQKGADDAKEGDDVSHTSQGCAESTEPTTPSGKANAEGRSRMQGVSATPEENAASAKPKIQAFSLNAKQPKGKVAMRYPSPQTLTCKEKLVNFHEDRHSNM
modifications: left off: large carriers
binding to GST-PP2A-A (pull-down) (PP2A-A subunit): bound GST-PP2A-A

B5: mAKAP 1286-2312: myc-tagged mAKAP construct containing binding sites for PDE4D3, PKA and PP2A (protein)
chain: VYSLHNVELHEDSHTPFLKSSPKFTGTTQPTVLTKSLSKDSSFSSTKSLPDLLGGSGLVRPYSCHSGDLSQNSGSESGIVSEGDNEMPTNSDMSLFSMVDGSPSNPETEHPDPQMGDAANVLEQKFKDNGESIKLSSVSRASVSPVGCVNGKAGDLNSVTKHTADCLGEELQGKHDVFTFYDYSYLQGSKLKLPMIMKQPQSEKAHVEDPLLGGFYFDKKSCKAKHQASESQPDAPPHERILASAPHEMGRSAYKSSDIEKTFTGIQSARQLSLLSRSSSVESLSPGGDLFGLGIFKNGSDSLQRSTSLESWLTSYKSNEDLFSCHSSGDISVSSGSVGELSKRTLDLLNRLENIQSPSEQKIKRSVSDMTLQSSSQKMPFAGQMSLDVASSINEDSPASLTELSSSDELSLCSEDIVLHKNKIPESNASFRKRLNRSVADESDVNVSMIVNVSCTSACTDDEDDSDLLSSSTLTLTEEELCLKDEDDDSSIATDDEIYEESNLMSGLDYIKNELQTWIRPKLSLTREKKRSGVTDEIKVNKDGGGNEKANPSDTLDIEALLNGSIRCLSENNGNGKTPPRTHGSGTKGENKKSTYDVSKDPHVADMENGNIESTPEREREKPQGLPEVSENLASNVKTISESELSEYEAVMDGSEDSSVARKEFCPPNDRHPPQMGPKLQHPENQSGDCKPVQNPCPGLLSEAGVGSRQDSNGLKSLPNDAPSGARKPAGCCLLEQNETEESASISSNASCCNCKPDVFHQKDDEDCSVHDFVKEIIDMASTALKSKSQPESEVAAPTSLTQIKEKVLEHSHRPIHLRKGDFYSYLSLSSHDSDCGEVTNYIDEKSSTPLPPDAVDSGLDDKEDMDCFFEACVEDEPVNEEAGLPGALPNESAIEDGAEQKSEQKTASSPVLSDKTDLVPLSGLSPQKGADDAKEGDDVSHTSQGCAESTEPTTPSGKANAEGRSRMQGVSATPEENAASAKPKIQAFSLNAKQPKGKVAMRYPSPQTLTCKEKLVNFHEDRHSNM
modifications: left off: small tags and cut ends
co-immunoprecipitation with OA-sensitive phosphatase activity (PP2A): co-immunoprecipitated with OA-sensitive phosphatase activity
